Experimental data reported in patent publication US7011951.

What was measured:
[1] = target: T1, AcinusS (D/A) resulting from substitution of Asp^1093 with Ala
T1 chain: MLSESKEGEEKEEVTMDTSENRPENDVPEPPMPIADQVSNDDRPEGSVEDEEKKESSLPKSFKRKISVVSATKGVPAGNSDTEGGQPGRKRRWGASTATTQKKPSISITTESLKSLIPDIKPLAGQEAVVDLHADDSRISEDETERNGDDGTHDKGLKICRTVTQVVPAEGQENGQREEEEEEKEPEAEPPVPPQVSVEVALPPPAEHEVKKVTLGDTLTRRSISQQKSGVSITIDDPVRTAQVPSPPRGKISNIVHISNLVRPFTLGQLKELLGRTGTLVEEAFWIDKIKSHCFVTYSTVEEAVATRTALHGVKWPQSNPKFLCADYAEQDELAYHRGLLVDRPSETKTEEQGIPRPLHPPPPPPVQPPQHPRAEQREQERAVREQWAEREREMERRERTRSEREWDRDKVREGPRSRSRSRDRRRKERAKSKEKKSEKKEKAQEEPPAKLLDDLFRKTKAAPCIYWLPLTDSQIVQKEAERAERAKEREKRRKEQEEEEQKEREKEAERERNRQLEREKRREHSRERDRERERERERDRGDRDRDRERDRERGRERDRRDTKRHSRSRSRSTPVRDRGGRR

human AcinusS = target: T2, human AcinusS
T2 chain: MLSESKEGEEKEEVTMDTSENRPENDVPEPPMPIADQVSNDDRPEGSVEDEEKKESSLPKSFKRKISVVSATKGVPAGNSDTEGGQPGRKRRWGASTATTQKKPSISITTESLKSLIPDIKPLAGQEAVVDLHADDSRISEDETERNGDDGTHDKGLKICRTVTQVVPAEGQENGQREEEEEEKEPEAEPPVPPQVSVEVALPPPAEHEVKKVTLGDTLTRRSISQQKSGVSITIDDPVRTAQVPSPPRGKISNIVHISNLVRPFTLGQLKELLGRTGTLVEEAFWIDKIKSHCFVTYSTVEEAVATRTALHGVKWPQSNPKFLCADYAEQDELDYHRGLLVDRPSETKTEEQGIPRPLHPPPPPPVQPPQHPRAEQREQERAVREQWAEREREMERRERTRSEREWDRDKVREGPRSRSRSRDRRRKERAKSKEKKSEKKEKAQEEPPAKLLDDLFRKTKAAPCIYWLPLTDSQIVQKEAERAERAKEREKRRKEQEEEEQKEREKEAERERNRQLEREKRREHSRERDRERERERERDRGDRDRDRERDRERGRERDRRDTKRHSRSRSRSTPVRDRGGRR

B1: recombinant active human caspase-3 (protein)
chain: SGISLDNSYKMDYPEMGLCIIINNKNFHKSTGMTSRSGTDVDAANLRETFRNLKYEVRNKNDLTREEIVELMRDVSKEDHSKRSSFVCVLLSHGEEGIIFGTNGPVDLKKITNFFRGDRCRSLTGKPKLFIIQACRGTELDCGIETDSGVDDDMACHKIPVEADFLYAYSTAPGYYSWRNSKDGSWFIQSLCAMLKQYADKLEFMHILTRVNRKVATEFESFSFDATFHAKKQIPCIVSMLTKELYFYH
in vitro cleavage by caspase-3 (SDS-PAGE, immunoblot) [1]: a mutation of substituting Asp^1093 with Ala (D/A) abolished the in vitro cleavage of Acinus by caspase-3 | cleavage of AcinusS by caspase-3 (SDS-PAGE, immunoblot; microsequencing of the cleavage product) (human AcinusS): human AcinusS was actually cleaved with caspase-3 in vivo, and the cleavage site was determined to be the Asp^1093 of DELD^1093
